T1: Rec27 (untagged, His6-SUMO tag removed by Ulp1) (S. pombe, UniProt Q9USR4 1-125)
T1 sequence (looked up): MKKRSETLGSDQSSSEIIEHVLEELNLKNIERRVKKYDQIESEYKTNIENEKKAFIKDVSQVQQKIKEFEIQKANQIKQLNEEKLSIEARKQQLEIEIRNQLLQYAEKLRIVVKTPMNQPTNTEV

B1: Rec25 (untagged) (natural protein, S. pombe, UniProt Q9C115 1-150, looked up)
chain: MVKGSVTNTSSIVKQFEKSSIKHETETIAFAKQFINECIREFQEQKDNVVEEKNTDQNHQNQNQEGVIIEIYQELLQKVDLISSELRQNLSSLQLRFQEVERDTGHDLLNVLNSLSQEARLAQKVLEEDGSQQGSQLIQGLLTCFQSTGN
B2: Mug20 (untagged) (natural protein, S. pombe, UniProt Q9HGN4 1-151, looked up)
chain: MSEIITSLQTELSNRHANMVSEAVLAFSEHHDSALHSYFLNARVKDVILESLRTTEEKLRALDKLQLDASKNLSNLLVEYNSINAELESVNSKISSISSQEYALEEFQALSQNFEKNLVQHRRNSQNKLKCAMEKLKMIETSTHKAILDNF

Target: T1, Rec27 (untagged, His6-SUMO tag removed …)
Assay: mass photometry

Binder | stoichiometry N
B1 | 1
B2 | 1
